Results published in IntAct's records for PubMed 31515488.

B1: Transcription factor 12 (Homo sapiens), Q99081 (parent)
chain: MNPQQQRMAAIGTDKELSDLLDFSAMFSPPVNSGKTRPTTLGSSQFSGSGIDERGGTTSWGTSGQPSPSYDSSRGFTDSPHYSDHLNDSRLGAHEGLSPTPFMNSNLMGKTSERGSFSLYSRDTGLPGCQSSLLRQDLGLGSPAQLSSSGKPGTAYYSFSATSSRRRPLHDSAALDPLQAKKVRKVPPGLPSSVYAPSPNSDDFNRESPSYPSPKPPTSMFASTFFMQDGTHNSSDLWSSSNGMSQPGFGGILGTSTSHMSQSSSYGNLHSHDRLSYPPHSVSPTDINTSLPPMSSFHRGSTSSSPYVAASHTPPINGSDSILGTRGNAAGSSQTGDALGKALASIYSPDHTSSSFPSNPSTPVGSPSPLTGTSQWPRPGGQAPSSPSYENSLHSLQSRMEDRLDRLDDAIHVLRNHAVGPSTSLPAGHSDIHSLLGPSHNAPIGSLNSNYGGSSLVASSRSASMVGTHREDSVSLNGNHSVLSSTVTTSSTDLNHKTQENYRGGLQSQSGTVVTTEIKTENKEKDENLHEPPSSDDMKSDDESSQKDIKVSSRGRTSSTNEDEDLNPEQKIEREKERRMANNARERLRVRDINEAFKELGRMCQLHLKSEKPQTKLLILHQAVAVILSLEQQVRERNLNPKAACLKRREEEKVSAVSAEPPTTLPGTHPGLSETTNPMGHM
partner: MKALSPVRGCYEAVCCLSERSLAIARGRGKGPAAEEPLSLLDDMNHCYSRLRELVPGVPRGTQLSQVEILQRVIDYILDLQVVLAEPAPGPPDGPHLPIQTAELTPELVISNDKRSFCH
B2: Pyruvate dehydrogenase protein X component, mitochondrial (Homo sapiens), O00330 (parent)
chain: MAASWRLGCDPRLLRYLVGFPGRRSVGLVKGALGWSVSRGANWRWFHSTQWLRGDPIKILMPSLSPTMEEGNIVKWLKKEGEAVSAGDALCEIETDKAVVTLDASDDGILAKIVVEEGSKNIRLGSLIGLIVEEGEDWKHVEIPKDVGPPPPVSKPSEPRPSPEPQISIPVKKEHIPGTLRFRLSPAARNILEKHSLDASQGTATGPRGIFTKEDALKLVQLKQTGKITESRPTPAPTATPTAPSPLQATAGPSYPRPVIPPVSTPGQPNAVGTFTEIPASNIRRVIAKRLTESKSTVPHAYATADCDLGAVLKVRQDLVKDDIKVSVNDFIIKAAAVTLKQMPDVNVSWDGEGPKQLPFIDISVAVATDKGLLTPIIKDAAAKGIQEIADSVKALSKKARDGKLLPEEYQGGSFSISNLGMFGIDEFTAVINPPQACILAVGRFRPVLKLTEDEEGNAKLQQRQLITVTMSSDSRVVDDELATRFLKSFKANLENPIRLA
B3: Tripartite motif-containing protein 29 (Homo sapiens), Q14134 (parent)
chain: MEAADASRSNGSSPEARDARSPSGPSGSLENGTKADGKDAKTTNGHGGEAAEGKSLGSALKPGEGRSALFAGNEWRRPIIQFVESGDDKNSNYFSMDSMEGKRSPYAGLQLGAAKKPPVTFAEKGELRKSIFSESRKPTVSIMEPGETRRNSYPRADTGLFSRSKSGSEEVLCDSCIGNKQKAVKSCLVCQASFCELHLKPHLEGAAFRDHQLLEPIRDFEARKCPVHGKTMELFCQTDQTCICYLCMFQEHKNHSTVTVEEAKAEKETELSLQKEQLQLKIIEIEDEAEKWQKEKDRIKSFTTNEKAILEQNFRDLVRDLEKQKEEVRAALEQREQDAVDQVKVIMDALDERAKVLHEDKQTREQLHSISDSVLFLQEFGALMSNYSLPPPLPTYHVLLEGEGLGQSLGNFKDDLLNVCMRHVEKMCKADLSRNFIERNHMENGGDHRYVNNYTNSFGGEWSAPDTMKRYSMYLTPKGGVRTSYQPSSPGRFTKETTQKNFNNLYGTKGNYTSRVWEYSSSIQNSDNDLPVVQGSSSFSLKGYPSLMRSQSPKAQPQTWKSGKQTMLSHYRPFYVNKGNGIGSNEAP
B4: Forkhead box protein R2 (Homo sapiens), Q6PJQ5 (parent)
chain: MDLKLKDCEFWYSLHGQVPGLLDWDMRNELFLPCTTDQCSLAEQILAKYRVGVMKPPEMPQKRRPSPDGDGPPCEPNLWMWVDPNILCPLGSQEAPKPSGKEDLTNISPFPQPPQKDEGSNCSEDKVVESLPSSSSEQSPLQKQGIHSPSDFELTEEEAEEPDDNSLQSPEMKCYQSQKLWQINNQEKSWQRPPLNCSHLIALALRNNPHCGLSVQEIYNFTRQHFPFFWTAPDGWKSTIHYNLCFLDSFEKVPDSLKDEDNARPRSCLWKLTKEGHRRFWEETRVLAFAQRERIQECMSQPELLTSLFDL
partner: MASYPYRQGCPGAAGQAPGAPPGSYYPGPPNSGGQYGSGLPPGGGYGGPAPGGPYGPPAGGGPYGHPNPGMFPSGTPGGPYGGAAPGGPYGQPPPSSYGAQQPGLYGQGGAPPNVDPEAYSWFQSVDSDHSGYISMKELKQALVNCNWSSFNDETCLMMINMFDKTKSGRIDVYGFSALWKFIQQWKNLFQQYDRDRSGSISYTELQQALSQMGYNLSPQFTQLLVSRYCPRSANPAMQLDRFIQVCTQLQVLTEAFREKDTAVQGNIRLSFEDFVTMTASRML

Variants of: B1
Settings: with id3_human ID3, Q02535

Variant	effect of a mutation on the interaction
L483R	with no effect
A458V	with no effect
N479S	with no effect
D565V	with no effect
I11M	with no effect

Variants of: B2
Settings: with atrap_human AGTRAP

Variant	effect of a mutation on the interaction
N270S	with no effect

Variants of: B3
Settings: with tri23_human TRIM23, P36406
tri23_human TRIM23, P36406, sequence (P36406 whole entry): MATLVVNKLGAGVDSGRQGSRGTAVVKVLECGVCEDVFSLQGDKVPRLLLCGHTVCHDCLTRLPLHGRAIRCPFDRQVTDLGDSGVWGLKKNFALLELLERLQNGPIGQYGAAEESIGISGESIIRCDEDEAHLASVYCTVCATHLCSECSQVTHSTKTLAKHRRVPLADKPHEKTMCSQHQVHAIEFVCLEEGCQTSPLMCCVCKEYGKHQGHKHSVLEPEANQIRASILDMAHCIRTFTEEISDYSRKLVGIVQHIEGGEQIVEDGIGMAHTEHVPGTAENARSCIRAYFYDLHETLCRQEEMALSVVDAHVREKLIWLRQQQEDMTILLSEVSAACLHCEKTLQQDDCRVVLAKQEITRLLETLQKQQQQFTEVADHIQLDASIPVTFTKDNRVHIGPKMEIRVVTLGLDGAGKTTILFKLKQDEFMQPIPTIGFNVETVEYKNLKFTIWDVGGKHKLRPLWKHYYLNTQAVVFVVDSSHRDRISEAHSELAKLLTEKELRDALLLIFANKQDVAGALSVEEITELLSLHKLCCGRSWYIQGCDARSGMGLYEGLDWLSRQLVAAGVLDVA

Variant	effect of a mutation on the interaction
S91C	with no effect

Variants of: B3
Settings: with cep70_human CEP70, Q8NHQ1
cep70_human CEP70, Q8NHQ1, sequence (Q8NHQ1 whole entry): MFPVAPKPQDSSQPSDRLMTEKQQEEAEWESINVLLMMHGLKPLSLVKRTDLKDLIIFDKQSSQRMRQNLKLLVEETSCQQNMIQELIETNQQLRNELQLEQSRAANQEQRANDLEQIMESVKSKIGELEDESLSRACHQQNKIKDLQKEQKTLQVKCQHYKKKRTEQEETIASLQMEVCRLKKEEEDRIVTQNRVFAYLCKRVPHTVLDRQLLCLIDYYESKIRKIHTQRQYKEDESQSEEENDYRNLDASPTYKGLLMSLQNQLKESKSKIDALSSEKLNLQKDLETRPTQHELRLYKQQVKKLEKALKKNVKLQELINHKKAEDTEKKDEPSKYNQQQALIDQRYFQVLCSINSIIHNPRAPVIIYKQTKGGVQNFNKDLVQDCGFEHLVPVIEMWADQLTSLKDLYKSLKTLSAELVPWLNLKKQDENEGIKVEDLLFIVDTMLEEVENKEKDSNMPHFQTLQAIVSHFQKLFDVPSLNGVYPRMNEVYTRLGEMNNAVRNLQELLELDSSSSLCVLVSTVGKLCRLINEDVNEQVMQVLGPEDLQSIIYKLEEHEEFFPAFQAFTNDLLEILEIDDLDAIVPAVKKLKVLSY

Variant	effect of a mutation on the interaction
S91C	with no effect

Variants of: B3
Settings: with tri23_human TRIM23, P36406
Remark: another data set of the same source

Variant	effect of a mutation on the interaction
S514F	with no effect

Variants of: B3
Settings: with cep70_human CEP70, Q8NHQ1
Remark: another data set of the same source

Variant	effect of a mutation on the interaction
S514F	disrupting interaction strength

Variants of: B4
Settings: with pef1_human PEF1, Q9UBV8

Variant	effect of a mutation on the interaction
V286A	with no effect
I218F	disrupting interaction strength
